Measured values published in patent publication US9533055 (ARMAGEN TECHNOLOGIES, dated 2017).

Biological target: T1, HIR extracellular domain (ECD) (human, UniProt P06213 28-956, limits assumed)
T1 construct: extracellular domain; also called HIR ECD; human insulin receptor ECD
Assay: ELISA, plated HIR ECD, biotinylated goat anti-human IgG detection
Method: The affinity of the fusion protein for the HIR extracellular domain (ECD) was determined with an ELISA using the lectin affinity purified HIR ECD. CHO cells permanently transfected with the HIR ECD were grown in serum free media (SFM), and the HIR ECD was purified with a wheat germ agglutinin affinity column. The HIR ECD (0.2 μg/well) was plated on Immulon 2 high binding 96-well plates, and the binding of the chimeric HIRMAb, the HIRMAb-TNFR fusion protein, or human IgG1 to the HIR ECD was detected with a biotinylated goat anti-human IgG (H+L) antibody (0.3 μg/well), and the avidin biotinylated peroxidase detection system.

B1: chimeric HIRMAb (antibody, V domains shown)
VH: QVQLQQSGPELVKPGALVKISCKASGYTFTNYDIHWVKQRPGQGLEWIGWIYPGDGSTKYNEKFKGKATLTADKSSSTAYMHLSSLTSEKSAVYFCAREWAYWGQGTLVTVSA
VL: DIQMTQSPSSLSASLGERVSLTCRASQDIGGNLYWLQQGPDGTIKRLIYATSSLDSGVPKRFSGSRSGSDYSLTISSLESEDFVDYYCLQYSSSPWTFGGGTKMEIKR
notes: Human IgG1/kappa constant regions; also called MAb to HIR
**Q.** How did the EC50 turn out when B1 was run?
**A.** 0.44 nM
